Reference: US20220275059A1 (HARBOUR ANTIBODIES, published 2022)

Molecular target: peptide 24.end
Test: ELISA on coated peptide 24.end, A450 [B]

B1: 2.6h11 (antibody, V domains shown)
VH: EVQLVESGGGLVQPGRSLRLSCTASGFTFGDYVMSWFRQAPGKGLEWVGFIRSKAHGGTTEYAASVNGRFSISRDDSKTIAYLQMNSLKSEDTAVYYCTWLRNDYYYGMDVWGLGTTVTVSS
VL: DIMMTQSPLSLPVTPGEPASISCRSSQRLLHSNGYSYVDWYLQKPGQSPQLLIYLGSDRASGVPDRFSGSGSGTDFTLKISRVEAEDVGVYYCMQTLQTPWTFGQGTKVEIKR
binding result: no binding
